The text below walks through data of patent EP4806514A2 (Lepu Biopharma Co., Ltd., dated 2025).

In test [1] the target is T1, human CDH17, full length, expressed on cells (HEK293-hCDH17); AsPC-1, HCT-8, AGS, LoVo, KATO III, HT-29 tumor … (human, UniProt Q12864 23-832).
T1 construct: also called human CDH17 expressed on tumor cells
T1 sequence: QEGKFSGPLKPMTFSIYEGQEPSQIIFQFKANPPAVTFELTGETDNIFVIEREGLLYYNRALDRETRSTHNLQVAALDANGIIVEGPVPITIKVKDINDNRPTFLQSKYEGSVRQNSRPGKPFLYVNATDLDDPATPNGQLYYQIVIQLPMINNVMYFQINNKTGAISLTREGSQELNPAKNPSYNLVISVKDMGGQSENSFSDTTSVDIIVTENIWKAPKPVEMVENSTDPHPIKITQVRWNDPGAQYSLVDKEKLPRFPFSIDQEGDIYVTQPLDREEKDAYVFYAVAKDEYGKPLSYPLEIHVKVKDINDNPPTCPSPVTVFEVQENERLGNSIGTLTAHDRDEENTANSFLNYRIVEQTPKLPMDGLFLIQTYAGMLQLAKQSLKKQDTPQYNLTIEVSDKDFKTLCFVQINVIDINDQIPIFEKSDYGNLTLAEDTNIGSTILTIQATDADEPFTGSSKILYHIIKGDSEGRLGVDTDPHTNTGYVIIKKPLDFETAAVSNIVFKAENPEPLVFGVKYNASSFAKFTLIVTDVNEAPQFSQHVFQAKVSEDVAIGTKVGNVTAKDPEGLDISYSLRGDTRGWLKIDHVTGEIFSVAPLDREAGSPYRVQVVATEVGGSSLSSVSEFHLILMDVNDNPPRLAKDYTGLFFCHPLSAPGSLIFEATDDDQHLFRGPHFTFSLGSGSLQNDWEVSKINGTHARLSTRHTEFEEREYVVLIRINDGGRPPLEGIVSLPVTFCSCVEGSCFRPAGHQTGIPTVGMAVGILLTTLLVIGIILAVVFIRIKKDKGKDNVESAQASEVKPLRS
The experiment in a line: flow cytometry, AsPC-1 cells. For orientation: In flow cytometry, cells or beads pass a laser one at a time.

The target in test [2] is T2, hCDH17-his (full length extracellular domain of human CDH17, Q23-M787, his tag at the C-terminal) (human, UniProt Q12864 23-787).
T2 construct: Limits of the construct (UniProt Q12864, Q23-M787, C-terminal his tag); also called human CDH17-his protein; human CDH17 protein
T2 sequence: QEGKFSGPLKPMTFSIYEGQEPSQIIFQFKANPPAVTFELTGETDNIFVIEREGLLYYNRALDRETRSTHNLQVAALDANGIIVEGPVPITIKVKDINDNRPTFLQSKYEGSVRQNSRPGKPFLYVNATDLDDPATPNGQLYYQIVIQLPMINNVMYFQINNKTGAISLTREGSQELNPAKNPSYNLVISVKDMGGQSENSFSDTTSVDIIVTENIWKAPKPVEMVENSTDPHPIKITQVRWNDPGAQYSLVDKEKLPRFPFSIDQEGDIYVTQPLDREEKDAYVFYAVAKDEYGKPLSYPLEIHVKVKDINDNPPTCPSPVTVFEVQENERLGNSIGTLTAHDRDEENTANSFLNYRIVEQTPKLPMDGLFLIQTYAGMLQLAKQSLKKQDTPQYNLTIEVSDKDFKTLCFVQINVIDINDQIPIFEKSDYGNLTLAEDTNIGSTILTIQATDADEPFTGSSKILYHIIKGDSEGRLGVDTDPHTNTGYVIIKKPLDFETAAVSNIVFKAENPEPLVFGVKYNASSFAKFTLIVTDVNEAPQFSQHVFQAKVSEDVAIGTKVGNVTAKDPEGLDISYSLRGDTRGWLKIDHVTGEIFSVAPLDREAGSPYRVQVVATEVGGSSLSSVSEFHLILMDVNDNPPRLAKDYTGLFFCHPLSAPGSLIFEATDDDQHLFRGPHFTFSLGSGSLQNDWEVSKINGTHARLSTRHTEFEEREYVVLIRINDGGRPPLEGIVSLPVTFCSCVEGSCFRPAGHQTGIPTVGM
The experiment in a line: SPR (Biacore 8K), antibody captured on Protein A chip, hCDH17-his injected. (SPR reads the build-up and loss of mass on a sensor chip optically.)

Test [3] deals with T1, human CDH17, full length, expressed on …. The experiment in a line: flow cytometry, AsPC-1, AGS, KATO III and HT-29 cells.

B1: 29H8D3-z3 (antibody, V domains shown)
VH: QVQLVQSGAEVKKPGASVKVSCKASGYTFTDHTIHWVRQAPGQGLEWMGYIYPRDGYTKYNEKFKDRVTMTTDTSTSTAYMELRSLRSDDTAVYYCARFYYGYWYFDVWGQGTTVTVSS
VL: DIVMTQSPLSLPVTPGEPASISCRSSKSLLRSNGNTYLYWFLQKPGQSPQVLIYRMSNLASGVPDRFSGSGSGTDFTLKISRVEAEDVGVYYCMQHLEYPFTFGQGTKLEIK
notes: Humanized variable regions fused to human IgG1 constant region
For the molecule B1, the binding result in test [1] and in test [2] was “binds” throughout.

B2: 29H8D3-z9 (antibody, V domains shown)
VH: QVQLVQSGAEVKKPGASVKVSCKASGYTFTDHTIHWMRQAPGQGLEWIGYIYPRDGYTKYNEKFKDRATMTTDTSTSTAYMELRSLRSDDTAVYYCARFYYGYWYFDVWGQGTTVTVSS
VL: DIVMTQSPLSLPVTPGEPASISCRSSKSLLRSNGNTYLYWFLQKPGQSPQVLIYRMSNLASGVPDRFSGSGSGTDFTLKISRVEAEDVGVYYCMQHLEYPFTFGQGTKLEIK
notes: Humanized, human IgG1 constant region
Consider B2, for which the binding result in test [1] and in test [2] was “binds” in each case.

B3: 29H8D3-z6 (antibody, V domains shown)
VH: QVQLVQSGAEVKKPGASVKVSCKASGYTFTDHTIHWVRQAPGQGLEWIGYIYPRDGYTKYNEKFKDRATMTTDTSTSTAYMELRSLRSDDTAVYYCARFYYGYWYFDVWGQGTTVTVSS
VL: DIVMTQSPLSLPVTPGEPASISCRSSKSLLRSNGNTYLYWFLQKPGQSPQVLIYRMSNLASGVPDRFSGSGSGTDFTLKISRVEAEDVGVYYCMQHLEYPFTFGQGTKLEIK
notes: as for B2
Take B3: the binding result in test [1] and in test [2] was “binds” in each case.

B4: 29D2D7-z19p3-DXd (antibody, V domains shown)
VH: QVQLVQSGAEVKKPGASVKVSCKASGYTFTDYDMHWVKQAPGQGLEWIGGFDPESAGTVYNLRFKDKATLTADKSTSTAYMELRSLRSEDTAVYYCARKGYYSVSSPFTYWGQGTLVTVSS
VL: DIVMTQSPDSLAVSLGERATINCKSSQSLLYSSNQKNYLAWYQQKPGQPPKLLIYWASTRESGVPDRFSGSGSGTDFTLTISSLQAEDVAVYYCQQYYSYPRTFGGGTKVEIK
modifications: MC-GGFG-DXd (deruxtecan) conjugated to the antibody, DAR around 7.50-7.90; sites not given
notes: also called 29D2D7-z19-MC-GGFG-DXd
With B4, in test [3], the binding result was “binds”.
